Laboratory results: paper doi:10.1101/2021.03.07.432812 (bioRxiv, 2021)
Each block holds one binder with its values, some of them ahead of it. Where no end group is shown, it is not given here. [ ]: non-standard residue; d: D form. Lys(Me3) = C[N+](C)(C)CCCC[C@H](N)C(=O)O; Lys(Me2) = CN(C)CCCC[C@H](N)C(=O)O; Lys(Me) = CNCCCC[C@H](N)C(=O)O

Experiments:
[1] = biological target: T1, Human Spindlin1 50-262 (human, UniProt Q9Y657 50-262); experiment: ITC
[2] = biological target: Spindlin1_(50-262) bound to DOCpep(1-3) (human | , UniProt Q9Y657 50-262; Q9BUA3 188-281); experiment: ITC
[3] = biological target: T2, Spindlin1_(50-262) bound to DOCpep3 (human | , UniProt Q9Y657 50-262; Q9BUA3 256-281); experiment: ITC
T2 chain 1: […]
T2 chain 2: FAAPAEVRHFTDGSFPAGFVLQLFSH

[4] = biological target: the molecule itself; experiment: SEC
[5] = biological target: the molecule itself; experiment: native gel or EMSA
[6] = biological target: T1, Human Spindlin1 50-262; experiment: thermal shift assay
[7] = biological target: Spindlin1 W151A (human, UniProt Q9Y657 50-262, W151A); experiment: ITC
Chain of Spindlin1 W151A (Q9Y657 50-262 W151A): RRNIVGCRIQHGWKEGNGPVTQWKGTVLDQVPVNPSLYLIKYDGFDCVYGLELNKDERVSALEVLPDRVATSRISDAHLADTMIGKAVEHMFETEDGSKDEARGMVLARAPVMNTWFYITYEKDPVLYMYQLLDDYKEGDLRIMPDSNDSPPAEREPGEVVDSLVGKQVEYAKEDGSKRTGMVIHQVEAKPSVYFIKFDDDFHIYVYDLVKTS

[8] = biological target: Spindlin1 F141A (human, UniProt Q9Y657 50-262, F141A); experiment: ITC
Chain of Spindlin1 F141A (Q9Y657 50-262 F141A): as the sequence (Q9Y657 50-262 W151A) above, with F92A, A102W counted along it

[9] = biological target: Spindlin1 Y177A (human, UniProt Q9Y657 50-262, Y177A); experiment: ITC
Chain of Spindlin1 Y177A (Q9Y657 50-262 Y177A): as the sequence (Q9Y657 50-262 W151A) above, with A102W, Y128A counted along it

B2: histone H3 1-15 K4me3K9me1 peptide (peptide)
peptide: ART[Lys(Me3)]QTAR[Lys(Me)]STGGKA
fold decrease of binding affinity in the presence of DOCpep(1-3) [2]: ~17 fold
binding result [3]: binds

B3: DOCpep1, SPIN•DOC 187-195 peptide (peptide)
peptide: LPKRSRPRG
Kd [1]: 78 µM

B6: full-length SPIN•DOC with N-terminal 6xHis tag, co-expressed with Spindlin1 (natural protein, UniProt Q9BUA3 1-381, looked up)
chain: MALKAEGAALDCFEVTLKCEEGEDEEEAMVVAVIPRPEPMLRVTQQEKTPPPRPSPLEAGSDGCEEPKQQVSWEQEFLVGSSPGGSGRALCMVCGAEIRAPSADTARSHILEQHPHTLDLSPSEKSNILEAWSEGVALLQDVRAEQPSPPNSDSGQDAHPDPDANPDAARMPAEIVVLLDSEDNPSLPKRSRPRGLRPLELPAVPATEPGNKKPRGQRWKEPPGEEPVRKKRGRPMTKNLDPDPEPPSPDSPTETFAAPAEVRHFTDGSFPAGFVLQLFSHTQLRGPDSKDSPKDREVAEGGLPRAESPSPAPPPGLRGTLDLQVIRVRMEEPPAVSLLQDWSRHPQGTKRVGAGDTSDWPTVLSESSTTVAGKPEKGNGV
stoichiometry N [4]: 2

B7: GFP-SPIN•DOC wild type (natural protein, UniProt Q9BUA3 1-381, looked up)
chain: B6 chain
stoichiometry N [5]: 2

B8: Flag-SPIN•DOC wild type (natural protein, UniProt Q9BUA3 1-381, looked up)
chain: B6 chain
stoichiometry N [5]: 2

Continued, values first:

Kd [1]: 7.6 µM
stoichiometry N [1]: 0.5
B1: SPIN•DOC 184-240, the whole K/R-rich region (domain or fragment)
chain: NPSLPKRSRPRGLRPLELPAVPATEPGNKKPRGQRWKEPPGEEPVRKKRGRPMTKNL

fold reduction of binding against wild-type DOCpep1 [1]: 9 fold
B4: DOCpep1 K189A peptide (peptide)
peptide: LPARSRPRG

fold reduction of binding against wild-type DOCpep1 [1]: 11 fold
B5: DOCpep1 R192A peptide (peptide)
peptide: LPKRSAPRG

binding result [6]: binds
B9: SPIN•DOC 188-281, DOCpep(1-3) (domain or fragment)
chain: PKRSRPRGLRPLELPAVPATEPGNKKPRGQRWKEPPGEEPVRKKRGRPMTKNLDPDPEPPSPDSPTETFAAPAEVRHFTDGSFPAGFVLQLFSH

fold decrease of binding affinity in the presence of DOCpep(1-3) [2]: ~4.5 fold
binding result [3]: binds
B10: histone H3 1-15 K4me3K9me2 peptide (peptide)
peptide: ART[Lys(Me3)]QTAR[Lys(Me2)]STGGKA

binding result [3]: binds
B11: histone H3 1-15 K4me3K9me3 peptide (peptide)
peptide: ART[Lys(Me3)]QTAR[Lys(Me3)]STGGKA

binding result [7]: binds
binding result [8]: binds
Kd [1]: 31 µM
binding result [9]: binds
B12: DOCpep2, SPIN•DOC 228-239 peptide (peptide, UniProt Q9BUA3 228-239, looked up)
peptide: VRKKRGRPMTKN
